B1: PFV-Gag-NtD (amino terminal domain of Prototypic Foamy Virus Gag, residues 1-179) [Prototypic foamy virus (PFV)] / PFV Env leader peptide residues 1-20 [Prototypic foamy virus (PFV)] (parent)
chain 1: MASGSNVEEYELDVEALVVILRDRNIPRNPLHGEVIGLRLTEGWWGQIERFQMVRLILQDDDNEPLQRPRYEVIQRAVNPHTMFMISGPLAELQLAFQDLDLPEGPLRFGPLANGHYVQGDPYSSSYRPVTMAETAQMTRDELEDVLNTQSEIEIQMINLLELYEVETRALRRQLAERS
chain 2: MAPPMTLQQWIIWKKMNKAH

Variants of: B1
Experiment: sedimentation velocity analytical ultracentrifugation
Conditions: with PFV Env leader peptide residues 1-20 [Prototypic foamy virus (PFV)]; 75 µM equimolar mixtures of Gag-NtDs with Env(1-20); read off a plot

Variant	Ka
chain 1 V18S L21S	0.16 10^5 M^-1
chain 1 L21S	0.29 10^5 M^-1
chain 1 L21N	0.3 10^5 M^-1
chain 1 V14S L21S	0.07 10^5 M^-1
chain 1 V18S	0.6 10^5 M^-1
chain 1 L17S	0.71 10^5 M^-1
chain 1 V14S V18S	0.18 10^5 M^-1
chain 1 V14S	0.51 10^5 M^-1
chain 1 N29Q	1.4 10^5 M^-1

— PMC3649970, “A Unique Spumavirus Gag N-terminal Domain with Functional Properties of Orthoretroviral Matrix and Capsid” (PLoS Pathogens, 2013)
